Assay results taken from article PMC11697783, “Structure/function of ATP sulfurylase domain of human 3′-phosphoadenosine 5′-phosphosulfate synthase (hPAPSS)” (Biochemistry and Biophysics Reports, 2024).
Residue numbers refer to the chain shown, from its start. Numbers in names are those of the source.

B1: hPAPSS1 (full length, residues 1-623) (Homo sapiens) (protein)
chain: MEIPGSLCKKVKLSNNAQNWGMQRATNVTYQAHHVSRNKRGQVVGTRGGFRGCTVWLTGLSGAGKTTVSMALEEYLVCHGIPCYTLDGDNIRQGLNKNLGFSPEDREENVRRIAEVAKLFADAGLVCITSFISPYTQDRNNARQIHEGASLPFFEVFVDAPLHVCEQRDVKGLYKKARAGEIKGFTGIDSEYEKPEAPELVLKTDSCDVNDCVQQVVELLQERDIVPVDASYEVKELYVPENKLHLAKTDAETLPALKINKVDMQWVQVLAEGWATPLNGFMREREYLQCLHFDCLLDGGVINLSVPIVLTATHEDKERLDGCTAFALMYEGRRVAILRNPEFFEHRKEERCARQWGTTCKNHPYIKMVMEQGDWLIGGDLQVLDRVYWNDGLDQYRLTPTELKQKFKDMNADAVFAFQLRNPVHNGHALLMQDTHKQLLERGYRRPVLLLHPLGGWTKDDDVPLMWRMKQHAAVLEEGVLNPETTVVAIFPSPMMYAGPTEVQWHCRARMVAGANFYIVGRDPAGMPHPETGKDLYEPSHGAKVLTMAPGLITLEIVPFRVAAYNKKKKRMDYYDSEHHEDFEFISGTRMRKLAREGQKPPEGFMAPKAWTVLTEYYKSLEK
notes: full length 1-623 (APSK + ATPS domains); E. coli BL21(DE3) pLys; Ni column and gel filtration
B2: hPAPSS1 (full length, residues 1-623) (Homo sapiens; N426K) (protein)
chain: B1 chain with N426K
notes: as for B1
B3: COOH-terminal (aa 220-623) ATPS domain of hPAPSS1 (Homo sapiens) (protein)
chain: LQERDIVPVDASYEVKELYVPENKLHLAKTDAETLPALKINKVDMQWVQVLAEGWATPLNGFMREREYLQCLHFDCLLDGGVINLSVPIVLTATHEDKERLDGCTAFALMYEGRRVAILRNPEFFEHRKEERCARQWGTTCKNHPYIKMVMEQGDWLIGGDLQVLDRVYWNDGLDQYRLTPTELKQKFKDMNADAVFAFQLRNPVHNGHALLMQDTHKQLLERGYRRPVLLLHPLGGWTKDDDVPLMWRMKQHAAVLEEGVLNPETTVVAIFPSPMMYAGPTEVQWHCRARMVAGANFYIVGRDPAGMPHPETGKDLYEPSHGAKVLTMAPGLITLEIVPFRVAAYNKKKKRMDYYDSEHHEDFEFISGTRMRKLAREGQKPPEGFMAPKAWTVLTEYYKSLEK
notes: C-terminal ATP sulfurylase domain with linker, residues 220-623, APS kinase domain deleted; recombinant, purified

Key:
purified protein [1] = substrate: O=S(=O)(O)O; assay: purified protein; type: biochemical, Homo sapiens; details: fixed ATP, Tris-HCl pH 8.0, MgCl2, 37 °C, labelled compound
purified protein [2] = substrate: Nc1ncnc2c1ncn2[C@@H]1O[C@H](COP(=O)(O)OP(=O)(O)OP(=O)(O)O)[C@@H](O)[C@H]1O; assay: purified protein; type: biochemical, Homo sapiens; details: Tris-HCl pH 8.0, MgCl2, 37 °C; for K0.5: half maximal estimate, biphasic response, ATPS + APSK combined activity (two ATP sites)

Protein | Km (purified protein [1]; ATPS + APSK combined activity) [µM] | K0.5 (purified protein [2]) [mM] | Km (purified protein [1]; ATP sulfurylase activity) [µM] | Km (purified protein [2]; fixed sulfate, ATP sulfurylase activity) [µM]
B1 | 330 | 4.3 |  | 
B2 | 440 | 3.7 |  | 
B3 |  |  | 530 | 2200
